# B1: ADI-41607 (antibody, V domains shown)
# VH: EVQLVESGPGLVKPSQTLSLTCTVSGGSINIGGYYWSWIRQHPEKGLEWIGYIYYSGTTYYNPSLESRVTISIDTSKNQFSLNLSSVTAADTAVYYCASVDQIGATRFDYWGQGTLVTVSS
# VL: QPVLTQPRSVSGSPGQSVTLSCTGTSSDVGTYNYVSWYQHHPGKAPKLIIYDVNKRPSGVPDRFSGSKSGNTASLTISGLQAEDEADYYCCSYAGSYTLNYVFGTGTKLTVL
# B2: ADI-41600 (antibody, V domains shown)
# VH: EVQLLESGGNMVQPGKSLRLSCAASGFTFSNYGMHWVRQAPGKGLEWVAVISKDGNNEHYADSVRARFTVSRDNSKNTLFLQMNSLRPEDTAVYYCAIGGLSGSYFGEYFQHWGRGTLVTVSS
# VL: DIQMTQSPSSMSASLGDRVTITCRASQGISTWLAWYQQKPGEAPKLLIYAAFGLQSGVPSRFSGSGSGTDFTLTINNLQPEDFATYYCQQAISFPFTFGGGTKVEIK
# notes: also called Ab 874; Antibody Number 874
# B3: ADI-41608 (antibody, V domains shown)
# VH: QVQLVQSGDEVKKPGESLKISCKGSEHTFTNYWIAWVRQMPGKGLECMGVIWPDDSDTKYSPSFQGQVTISADKSINTAYLHLSSLRASDTAMYYCATSKFRTGFDFWGQGTLVTVSS
# VL: NFMLTQPHSVSESPGKTVIISCTRSSGNIASNYVQWYQQRPGSSPTTVVYEDNQRPSGVPDRFSGSIDSSSNSASLTISGLKTEDEADYYCQSYDSSNPWVFGGGTKLTVL
# B4: ADI-41587 (antibody, V domains shown)
# VH: QVQLVQSGAGLLKPSETLSLTCAVYGGSFSGYSWSWIRQPPGKGLEWIGEINYSVSTSYNSSLKSRVSISVDTSKNQFSLKLTSVTAADTAVYYCARVGGAVADWGQGTLVTVSS
# VL: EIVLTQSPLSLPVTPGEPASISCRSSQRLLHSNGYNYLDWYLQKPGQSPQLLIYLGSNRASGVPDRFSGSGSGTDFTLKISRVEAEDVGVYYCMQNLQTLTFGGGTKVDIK
# B5: ADI-41603 (antibody, V domains shown)
# VH: EVQLVESGGGLVKPGRSLRLSCTTSGFTFGDYAMSWFRQAPGKGLEWVGFIRSKPYGGATAYAASVRGRFTISNDDSKSIAYLQMESLKIEDTAVYYCARDYDDFFFYDYWGQGTLVTVSS
# VL: DIRMTQSPATLSVSPGERATLSCRASENIYSNLAWYQQKPGQAPRLLIYGASTRATGLPARFSGSGSGTEFTLTISSLQSEDFAVYYCQQYNNWPAFGGGTKVEIK
# notes: also called Ab 877; Antibody Number 877
# B6: ADI-41604 (antibody, V domains shown)
# VH: QVTLKESGAEVKKPGASVKVSCKASGYTFTGYYMHWVRQAPGQGLEWMGRINPNSGGTNYAQKFQGRVTMTRDTSISTAYMELSRLRSDDTAVYYCAREASRFGGFDYWGQGTLVTVSS
# VL: DIVLTQSPSSLSASVGDRVTITCQASQDISNYLNWYQQKPGKAPKLLIYDASNLETGVPSRFSGSGSGTDFTFTISSLQPEDIATYYCQQYDNLLGYTFGQGTKVEIK
# B7: ADI-41662 (antibody, V domains shown)
# VH: QVQLVQSGAEVKKAGESLKISCKGPRHSFTSYWIGWVRQMPGKGLEWMASIYPGDSDSRYSPSFEGQVTISADKSIDTAFLQWSSLKASDTAMYFCARYVGAVPGGNWYFDLWGRGTLVTVSS
# VL: SYELIQLPSVSVSPGQTARITCSGDALPKKYAYWYQQKSGQAPVLVIYDDNKRPSGIPARFSGSSSGTMATLTISGAQVEDEGDYYCYSTDSTGDHRGVFGGGTKLTVL
# B8: ADI-41586 (antibody, V domains shown)
# VH: QVQLQQWGAGLLKPSETLSLTCAVYGGSFSGYSWSWIRQPPGKGLEWIGDIDHDGSTYYNSSLKSRVTMSIDTSKNQFSLKLSSVTAADTAVYYCARVGGNSGYWGQGTLVTVSS
# VL: not shown
# notes: also called Ab 860; Antibody Number 860
# B9: ADI-41644 (antibody, V domains shown)
# VH: QVQLQQWGPGLVKPSETLSLSCAVSGGSLRGHFWSWIRQPPGKGLEWIGEINHGGRTNFNPSLKSRLTISEDSSKNQFSLKLSSVTAADTAVYYCARRWGYDSSGYYFFDYWGQGTLVTVSS
# VL: EIQMTQSPATLSVSPGERATLSCRASQTLGFNLAWYQQKPGQSPRLLIYGASTRATGIPARFSGSGAGTEFTLTISSLQSEDFAVYFCQQYSNYYTFGQGTKVEIK
# notes: also called Ab 887; Antibody Number 887
# B10: ADI-41602 (antibody, V domains shown)
# VH: EVQLQESGPGLVKPSETLSLTCTVSGGSLSGYYWSWIRQPPGKGLEWIGYIYHSGSTNYNPSLESRVTISVDTSKNQFSLKVNAVTAADTAVYYCAKVERLLRFDPWGQGTLVTVSS
# VL: QSVLIQPASVSGSPGQSITISCIGSSSDVGGYNYVSWYQHYPGKAPKLMIYDVSNRPSGVSNRFSGSKSGNTASLTISGLQAEDEADYYCSSYTSSTSYVFGTGTKVTVL
# notes: also called Ab 876; Antibody Number 876
# B11: ADI-41605 (antibody, V domains shown)
# VH: QVQLVESGPGLVKPSQTLSLTCSVSGGSISSDDHYWSWIRQHPGKGLEWIGYIYYSGYTNYNPSLKSRVTISVDTSKNQFSLRLSSVTAADTAVYYCARETDITIFGVVPVGYFDYWGQGTLVTVSS
# VL: DIQVTQSPDSLAVSLGERATINCKSSQSILSSTNNKNFLAWYQQKPGQPPKLLLHWASTREFGVPDRFSGSGSGTEFTLTISSLQAEDVAVYYCQQYYTTPYTFGQGTKVEIK
# notes: also called Ab 879; Antibody Number 879
# B12: ADI-41606 (antibody, V domains shown)
# VH: EVQLLESGPGLVKPSETLSLTCTVSGGSVSSGGYYYTWIRQPPGKGLEWIGYAFYSGDTNYNPSLKSRVTISVDTSKNQFSLKLTSVTAADTAVYYCASTYTFGASGFDFWGQGTLVTVSS
# VL: DIVMTQSPSFMSASVGDRVTITCRASQGISNWLLWYQQKPGKAPKLLIYAASSLQSGVPSRFSGSRSGTDFTLTISSLQPEDFAIYYCQQANSFPLTFGQGTRLEIK
# notes: also called Ab 880; Antibody Number 880
# B13: ADI-41592 (antibody, V domains shown)
# VH: EVQLVESGSELKKPGASVKVSCKASGYTFRTYVMNWVRQAPGQGLEWMGWINTNTGNPTYAQGFTGRFVFSLDTSVSTAYLQISSLKAEDTAVYYCARESIDDYDSSGYGRTFDYWGQGTLVTVSS
# VL: SYELTQPPSVSVSPGQTASIPCSGDKVGKTYVYWYQQTPGQSPGLVIYQDTKRPSGIPERFSGSSSGNTATLTISGTQTMDEADYYCQAWDTSTASYVFGTGTKLTVL
# notes: also called Ab 866; Antibody Number 866
# B14: ADI-41660 (antibody, V domains shown)
# VH: EVQLVQSGAEVKKPGSSVKVSCKASGGTFSRNAISWVRQAPGQGLEWMGGIIPIFGAANYPQKFQGRVTITADKSTSTAYMELSSLRSEDTALYYCARTMGEMTTTPVSIYYYGMDVWGQGTTVTVSS
# VL: QSVLTQPPSVSAAPGQKVTISCSGSSSNIGINYVSWYQQLPGTAPKLLIYDNNKRPSGIPDRFSGSKSGTSATLGITGLQTGDEADYYCGTWDSSLSAGYVFGSGTKLTVL
# B15: ADI-41588 (antibody, V domains shown)
# VH: QVQLVESGPTLVKPTQTLTLTCTFSGFSLSTNGVGVAWIRQPPGKALEWLAIIYWDDDKRYSPSLKSRLTITKDTSKNQVVLTVTDMDPVDTATYYCAHTIGVPAATRFDYWGQGTLVTVSS
# VL: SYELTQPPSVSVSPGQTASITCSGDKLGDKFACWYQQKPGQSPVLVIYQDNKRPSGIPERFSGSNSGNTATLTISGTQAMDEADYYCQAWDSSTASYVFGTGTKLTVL
# B16: ADI-41626 (antibody, V domains shown)
# VH: EVQLQESGPGLVKPSGTLSLTCAVAGGFISSGNWWSWIRQPPGKGLEWIGEVYHSGRTSYNPSLKSRVTISVDNSKNQFSLKMSSVTAADTAVYYCARVESYSSSGYYIAYFDNWGQGNLVTVSS
# VL: DIVLTQSPSSLSASVGDRVTITCRASQSISRYLSWYQQKPGKAPKLLIYAAFSLQTGVPSRFSGSGSGTDFTLTISSFQTEDSATYYCQQSYSAPVTFGGGTKVEIK
# B17: ADI-41611 (antibody, V domains shown)
# VH: EVQLVESGGGLVKPGGSLRLSCAASGFTFSDYSMNWVRQAPGKGLEWVSSTSSGSTYIYYADSVKGRFTISRDNGKNSLYLQMNSLRAEDTAVYYCARAFRLGYDALDIWGQGTMVTVSS
# VL: DIRMTQSPSSLSASVGDRVTIICRASQSISNYLNWYQQKPGKAPKLLIYVASNLQSGVPSRFSGSGSGTDFTLTISSLQPEDFATYYCQQTYSPPPTFGGGTKLEIK
# notes: also called Ab 885; Antibody Number 885
# B18: ADI-41583 (antibody, V domains shown)
# VH: QVQLVQSGAEVKKPGSSVKVSCKASGGTFSRHTITWVRQAPGQGLEWMGRIAPIVGFANYAQKFQGRVTITADKSTSTAYMELRSLRSEDTAVYYCARRSEDYYGLDVWGQGTTVTVSS
# VL: DIVMTQSPSSLSASVGDRVTITCQASQDISNYLNWYQQKPGKAPKLLIYEASNLETGVPSRFSGSGSGTDFTFTISSLQPEDIATYYCQQYDNLFGGGTKLEIK
# B19: ADI-41596 (antibody, V domains shown)
# VH: QVQLQQWGAGLLKPSETLSLTCAVYGDSFSGYFWTWIRQPPGKGLEWIGEINLSGSTNYNPSLKSRVTILVDTSKNQFSLKLSSVTAADTAVYYCARGLHVSDDQDSSGYYFHPGSFDYWGQGTLVTVSS
# VL: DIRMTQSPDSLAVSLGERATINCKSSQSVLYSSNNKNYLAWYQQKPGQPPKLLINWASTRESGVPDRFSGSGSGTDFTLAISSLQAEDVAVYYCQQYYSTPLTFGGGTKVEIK
# notes: also called Ab 870; Antibody Number 870
# B20: ADI-41593 (antibody, V domains shown)
# VH: QVQLVQSGVEVKKPGESLKISCKGSGYSFTNYWIAWVRQMPGKGLEWMGIIYPGDSDTRYSPSFQGQVTISADKSISTAYVQWSSLKASDTAIYYCARGDILTNSGPDAFDIWGQGTMVTVSS
# VL: DIQMTQSPSSFSASTGDRVTITCRASQAISSYLAWFQQKPGKAPKLLIYAASTLQSGVPSRFSGSGSGTDFTLTISCLQSEDFATYYCQQYYSYPLTFGGGTKVEIK
# notes: also called Ab 867; Antibody Number 867
# Molecular target: RSV F on RSV-A2 virus (Respiratory syncytial virus, RSV-A2, UniProt P03420 26-574)
# Assay: cell-based or functional assay
row,Binder,Neutralization IC50 (RSV subtype A) [µg/mL]
1,B1,> 25
2,B2,> 25
3,B3,> 25
4,B4,0.664
5,B5,> 25
6,B6,> 25
7,B7,> 25
8,B8,0.402
9,B9,> 25
10,B10,> 25
11,B11,> 25
12,B12,> 25
13,B13,> 25
14,B14,> 25
15,B15,> 25
16,B16,> 25
17,B17,> 25
18,B18,> 25
19,B19,0.0537
20,B20,> 25

# Molecular target: RSV prefusion F (preF), DS-Cav1 (Respiratory syncytial virus, UniProt P03420 26-513)
# Assay: BLI, IgG on anti-human IgG sensor, 100 nM antigen
row,Binder,Kd [nM]
1,B1,4.24
2,B2,4.93
3,B3,1.93
4,B4,1.4
5,B5,3.49
6,B6,17.8
7,B7,5.24
8,B8,0.538
9,B9,3.03
10,B10,2.85
11,B11,3.18
12,B12,3.39
13,B13,3.74
14,B14,2.94
15,B15,3.33
16,B16,2.6
17,B17,3.09
18,B18,0.664
19,B19,0.305
20,B20,1.83

# Molecular target: RSV postfusion F (postF), F ΔFP (Respiratory syncytial virus, UniProt P03420 26-513)
# Assay: BLI, IgG on anti-human IgG sensor, 100 nM antigen
row,Binder,Kd [nM]
1,B1,0.709
2,B2,0.755
3,B3,0.285
4,B4,2.09
5,B5,0.49
6,B6,29.2
7,B7,1.21
8,B8,0.779
9,B9,1.1
10,B10,0.455
11,B11,0.55
12,B12,1.03
13,B13,0.44
14,B14,0.955
15,B15,0.505
16,B16,0.891
17,B17,0.611
18,B18,0.381
19,B19,0.437
20,B20,0.53
